From PMC11914125

Assays:
[1] = biological target: Pol beta lyase domain (8 kDa) (rat) (UniProt P06766); assay: EMSA; details: EMSA: 20 nM NCP, 20 mM HEPES pH 7.5, 100 mM NaCl, 1 mM EDTA, 1 mM DTT, 0.1 mg/ml BSA, 20 min, 4 °C, 5% native PAGE, 0.2x TBE
[2] = biological target: DNA polymerase beta (full-length) (Homo sapiens) (UniProt P06746); assay: EMSA; details: EMSA: 20 nM NCP, 20 mM HEPES pH 7.5, 100 mM NaCl, 1 mM EDTA, 1 mM DTT, 0.1 mg/ml BSA, 20 min, 4 °C, 5% native PAGE, 0.2x TBE

| Sequence | Kd ([2]; 5'-phosphate on strand 3) [µM] | also measured |
| --- | --- | --- |
| ATCGGATGTATATATCTGACACGTGCCTGGAGACTAGGGAGTAATCCCCTTGGCGGTTAAAACGCGGGGGACAGCGCGTACGTGCGTTTAAGCGGTGCTAGAGCTGTCTACGACCAATTGAGCGGCCTCGGCACCGGGATTCTCGAT (double strand) [ND-NCP] |  | Kd [1]: 0.451 µM; Kd [2]: 0.217 µM |
| ATCGGATGTATATATCTGACACGTGCCTGGAGACTAGGGAGTAATCCCCTTGGCGGTTAAAACGCGGGGGACAGCGCGTACGTGCGTTTAAGCGGTGCTAGAGCTGTCTACGACCAATTGAGCGGCCTCGGCACCGGGATTCTCGAT / ATCGAGAATCCCGGTGCCGAGGCCGCTCAATTGGTCGTAGACAGCTCTAGCACCGCTTAAACGCACGTACGCGCTGTCCCCCGCGT / TTAACCGCCAAGGGGATTACTCCCTAGTCTCCAGGCACGTGTCAGATATATCCATCCGAT [Gap-NCP-1.5] | 0.149 |  |
| ATCGGATGTATATATCTGACACGTGCCTGGAGACTAGGGAGTAATCCCCTTGGCGGTTAAAACGCGGGGGACAGCGCGTACGTGCGTTTAAGCGGTGCTAGAGCTGTCTACGACCAATTGAGCGGCCTCGGCACCGGGATTCTCGAT / ATCGAGAATCCCGGTGCCGAGGCCGCTCAATTGGTCGTAGACAGCTCTAGCACCGCTTAAACGCACGTACGCGCTGTCCCCCGCGTTTTAACCGC / AAGGGGATTACTCCCTAGTCTCCAGGCACGTGTCAGATATATCCATCCGAT [Gap-NCP-2.5] | 0.118 |  |
| ATCGGATGTATATATCTGACACGTGCCTGGAGACTAGGGAGTAATCCCCTTGGCGGTTAAAACGCGGGGGACAGCGCGTACGTGCGTTTAAGCGGTGCTAGAGCTGTCTACGACCAATTGAGCGGCCTCGGCACCGGGATTCTCGAT / ATCGAGAATCCCGGTGCCGAGGCCGCTCAATTGGTCGTAGACAGCTCTAGCACCGCTTAAACGCACGTACGCGCTGTCCCCCGCGTTTTAACCGCCAAGGGGATTA / TCCCTAGTCTCCAGGCACGTGTCAGATATATCCATCCGAT [Gap-NCP-3.5] | 0.141 |  |
| ATCGGATGTATATATCTGACACGTGCCTGGAGACTAGGGAGTAATCCCCTTGGCGGTTAAAACGCGGGGGACAGCGCGTACGTGCGTTTAAGCGGTGCTAGAGCTGTCTACGACCAATTGAGCGGCCTCGGCACCGGGATTCTCGAT / ATCGAGAATCCCGGTGCCGAGGCCGCTCAATTGGTCGTAGACAGCTCTAGCACCGCTTAAACGCACGTACGCGCTGTCCCCCGCGTTTTAACCGCCAAGGGGATTACTCCCTA / TCTCCAGGCACGTGTCAGATATATCCATCCGAT [Gap-NCP-4.5+4] | 0.094 |  |
| ATCGGATGTATATATCTGACACGTGCCTGGAGACTAGGGAGTAATCCCCTTGGCGGTTAAAACGCGGGGGACAGCGCGTACGTGCGTTTAAGCGGTGCTAGAGCTGTCTACGACCAATTGAGCGGCCTCGGCACCGGGATTCTCGAT / ATCGAGAATCCCGGTGCCGAGGCCGCTCAATTGGTCGTAGACAGCTCTAGCACCGCTTAAACGCACGTACGCGCTGTCCCCCGCGTTTTAACCGCCAAGGGGATTACTCCCTAG / CTCCAGGCACGTGTCAGATATATCCATCCGAT [Gap-NCP-4.5+3] | 0.115 |  |
| ATCGGATGTATATATCTGACACGTGCCTGGAGACTAGGGAGTAATCCCCTTGGCGGTTAAAACGCGGGGGACAGCGCGTACGTGCGTTTAAGCGGTGCTAGAGCTGTCTACGACCAATTGAGCGGCCTCGGCACCGGGATTCTCGAT / ATCGAGAATCCCGGTGCCGAGGCCGCTCAATTGGTCGTAGACAGCTCTAGCACCGCTTAAACGCACGTACGCGCTGTCCCCCGCGTTTTAACCGCCAAGGGGATTACTCCCTAGT / TCCAGGCACGTGTCAGATATATCCATCCGAT [Gap-NCP-4.5+2] | 0.137 |  |
| ATCGGATGTATATATCTGACACGTGCCTGGAGACTAGGGAGTAATCCCCTTGGCGGTTAAAACGCGGGGGACAGCGCGTACGTGCGTTTAAGCGGTGCTAGAGCTGTCTACGACCAATTGAGCGGCCTCGGCACCGGGATTCTCGAT / ATCGAGAATCCCGGTGCCGAGGCCGCTCAATTGGTCGTAGACAGCTCTAGCACCGCTTAAACGCACGTACGCGCTGTCCCCCGCGTTTTAACCGCCAAGGGGATTACTCCCTAGTCT / CAGGCACGTGTCAGATATATACATCCGAT [Gap-NCP-4.5] | 0.098 | Kd ([1]; 5'-phosphate on strand 3): 0.125 µM |
| ATCGGATGTATATATCTGACACGTGCCTGGAGACTAGGGAGTAATCCCCTTGGCGGTTAAAACGCGGGGGACAGCGCGTACGTGCGTTTAAGCGGTGCTAGAGCTGTCTACGACCAATTGAGCGGCCTCGGCACCGGGATTCTCGAT / ATCGAGAATCCCGGTGCCGAGGCCGCTCAATTGGTCGTAGACAGCTCTAGCACCGCTTAAACGCACGTACGCGCTGTCCCCCGCGTTTTAACCGCCAAGGGGATTACTCCCTAGTCTCCAGGCACGT / TCAGATATATCCATCCGAT [Gap-NCP-5.5] | 0.051 |  |
